Results on 8 molecules are retold here after patent publication US20050282743A1, “Molecular interactions in cells” (Arbor Vita Corporation, priority 2001, published 2005).

Values joined by “and” are separate entries in the source; they are usually repeats but may differ in a detail not shown here. Identical values can stand only once.

For test [1], the target named is T1, GST-MINT1 PDZ domains 1, 2, Q02410.
T1 chain: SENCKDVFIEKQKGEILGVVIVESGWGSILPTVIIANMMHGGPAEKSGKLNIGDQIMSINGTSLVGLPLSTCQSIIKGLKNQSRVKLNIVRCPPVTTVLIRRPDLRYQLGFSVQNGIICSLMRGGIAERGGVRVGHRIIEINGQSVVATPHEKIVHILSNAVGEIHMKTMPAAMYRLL
Description: G assay titration, PDZ 5 ug/ml.

Test [2] has as its target T2, GST-KIAA0751(L) PDZ domain 1 (Mus musculus (Mouse)), Q9EQZ7.
T2 chain: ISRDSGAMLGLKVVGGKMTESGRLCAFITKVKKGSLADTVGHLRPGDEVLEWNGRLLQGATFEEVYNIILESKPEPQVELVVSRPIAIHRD
Description: G' assay. Also: key of the grades not given here.

Test [3] addresses T3, GST-TIAM 2 PDZ domain 1 (Homo sapiens (Human)), Q8IVF5.
T3 chain: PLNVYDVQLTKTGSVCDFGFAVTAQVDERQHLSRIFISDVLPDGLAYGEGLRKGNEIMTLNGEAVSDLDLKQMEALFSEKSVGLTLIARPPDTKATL
The test is described as follows: G' assay. Also: key of the grades not given here.

Test [4] deals with T4, GST-TIP-1 (Example 3) (human), O14907.
T4 chain: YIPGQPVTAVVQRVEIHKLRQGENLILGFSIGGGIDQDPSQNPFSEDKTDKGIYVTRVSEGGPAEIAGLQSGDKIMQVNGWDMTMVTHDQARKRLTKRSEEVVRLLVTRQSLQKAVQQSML
The test is described as follows: ratio of G assay Kd values.

For test [5] the target is unchanged. Description: G assay titration, PDZ 0.1 ug/ml.
Test [6] addresses GST-DLG1 PDZ domains 1, 2 (Homo sapiens), Q12959. The test is described as follows: G assay titration, PDZ 0.1 ug/ml.
Test [7] has as its target T5, GST-PSD95 PDZ domain 2 (Homo sapiens).
T5 chain: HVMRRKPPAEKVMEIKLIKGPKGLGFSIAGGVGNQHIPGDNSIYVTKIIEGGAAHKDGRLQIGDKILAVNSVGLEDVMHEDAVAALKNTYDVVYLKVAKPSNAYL
Description: G' assay. Also: key of the grades not given here.

Test [8] addresses T6, GST-FLJ 10324 PDZ domain 1 [GST: P08515].
T6 chain: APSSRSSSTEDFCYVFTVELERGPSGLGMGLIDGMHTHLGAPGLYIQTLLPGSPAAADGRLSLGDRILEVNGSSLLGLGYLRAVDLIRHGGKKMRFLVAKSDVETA
Description: G assay titration, PDZ 1 ug/ml.

Test [9] has as its target T7, GST-LIM Protein PDZ domain 1 (Homo sapiens (Human)), Q96HC4.
T7 chain: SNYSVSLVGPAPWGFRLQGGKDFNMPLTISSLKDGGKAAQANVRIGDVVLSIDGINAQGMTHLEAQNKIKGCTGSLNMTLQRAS
The test is described as follows: G' assay. Also: key of the grades not given here.

For test [10], the target named is T7, GST-LIM Protein PDZ domain 1 (Homo …). The test is described as follows: G assay titration, PDZ 1 ug/ml.
For test [11], the target named is GST-KIAA1634 PDZ domain 5 (Homo sapiens (Human)), Q5TCQ9. The test is described as follows: G assay titration, PDZ 1 ug/ml.
Chain of GST-KIAA1634 PDZ domain 5 (Homo sapiens (Human)), Q5TCQ9 (Q5TCQ9 other isoform, or with tags, fused parts or gaps): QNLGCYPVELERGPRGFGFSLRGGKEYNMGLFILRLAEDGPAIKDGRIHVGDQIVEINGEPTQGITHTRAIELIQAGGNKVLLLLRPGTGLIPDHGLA
Test [12] deals with T8, GST-KIAA1526 PDZ domain 1 (Homo sapiens (Human)), Q9P202.
T8 chain: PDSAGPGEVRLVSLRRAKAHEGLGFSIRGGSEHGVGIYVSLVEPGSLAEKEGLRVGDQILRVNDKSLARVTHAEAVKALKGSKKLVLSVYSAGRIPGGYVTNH
The test is described as follows: G assay titration, PDZ 5 ug/ml.

Test [13] concerns the target T9, GST-SITAC-18 PDZ domain 1 (Homo sapiens (Human)), Q9H190.
T9 chain: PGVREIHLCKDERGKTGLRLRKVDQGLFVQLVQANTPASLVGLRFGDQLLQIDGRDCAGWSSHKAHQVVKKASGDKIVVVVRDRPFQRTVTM
Description: G assay titration, PDZ 5 ug/ml.

Test [14] has as its target T10, GST-DLG1 PDZ domain 3 (Homo sapiens), Q12959.
T10 chain: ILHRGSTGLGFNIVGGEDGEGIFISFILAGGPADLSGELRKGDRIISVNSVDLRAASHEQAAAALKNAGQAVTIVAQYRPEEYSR
Description: G' assay. Also: key of the grades not given here.

For test [15], the target named is T11, GST-KIAA1719 PDZ domain 1 (Homo sapiens (Human)), Q9C0E4.
T11 chain: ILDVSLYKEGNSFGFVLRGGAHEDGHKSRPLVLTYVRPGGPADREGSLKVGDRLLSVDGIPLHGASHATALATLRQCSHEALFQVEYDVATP
The test is described as follows: G' assay. Also: key of the grades not given here.

Test [16] addresses T12, GST-PDZK1 PDZ domain 1 (Homo sapiens (Human)), Q5T2W1.
T12 chain: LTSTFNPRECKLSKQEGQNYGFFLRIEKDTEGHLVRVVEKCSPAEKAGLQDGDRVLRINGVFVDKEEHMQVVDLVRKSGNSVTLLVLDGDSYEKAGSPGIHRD
The test is described as follows: G' assay.

Test [17] has as its target GST-BAI-1 Associated Protein PDZ domain 4 (Homo sapiens (Human)), Q96QZ7. The test is described as follows: G assay titration, PDZ 0.3 ug/ml.
Test [18] concerns the target GST-BAI-1 Associated Protein PDZ domain 2 (Mus musculus (Mouse)), Q6RHR9. The test is described as follows: G assay titration, PDZ 0.3 ug/ml.
Test [19] addresses T13, GST-DLG1 PDZ domain 2 (Homo sapiens), Q12959.
T13 chain: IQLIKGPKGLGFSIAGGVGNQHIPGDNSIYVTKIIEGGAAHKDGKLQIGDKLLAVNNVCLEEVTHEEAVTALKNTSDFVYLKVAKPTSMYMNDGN
Description: G assay titration, PDZ 0.3 ug/ml.

For test [20], the target named is GST-KIAA1634 PDZ domain 4 (Homo sapiens (Human)), Q5TCQ9. Description: G assay titration, PDZ 5 ug/ml.
Chain of GST-KIAA1634 PDZ domain 4 (Homo sapiens (Human)), Q5TCQ9 (Q5TCQ9 844-945): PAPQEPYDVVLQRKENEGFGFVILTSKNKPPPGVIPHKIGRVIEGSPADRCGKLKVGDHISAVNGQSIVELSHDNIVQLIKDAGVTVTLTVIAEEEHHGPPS
The target of test [21] is T6, GST-FLJ 10324 PDZ domain 1 [GST: P08515]. Description: G assay titration, PDZ 5 ug/ml.

Chain of GST-BAI-1 Associated Protein PDZ domain 2 (Mus musculus (Mouse)), Q6RHR9 (Q6RHR9 455-558): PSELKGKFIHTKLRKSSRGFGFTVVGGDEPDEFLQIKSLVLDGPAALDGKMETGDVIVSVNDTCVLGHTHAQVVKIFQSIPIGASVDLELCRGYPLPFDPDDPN
Chain of GST-BAI-1 Associated Protein PDZ domain 4 (Homo sapiens (Human)), Q96QZ7 (Q96QZ7 other isoform, or with tags, fused parts or gaps): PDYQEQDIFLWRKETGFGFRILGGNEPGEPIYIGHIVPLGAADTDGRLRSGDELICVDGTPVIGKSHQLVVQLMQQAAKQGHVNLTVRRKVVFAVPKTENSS

Take PIPAGGCTFSGIFPTLTSPL (modifications not checked) [KIA 1481]: in [1], the Kd (in general, a measure of binding affinity in units of concentration) turned out to be 800 nM.
HDFRRAFKKILARGDRKRIV (modifications not checked) [alpha-2A Adrenergic receptor] gave a Classification in test [2] of 3 A450 class.
Turning to ELLQFCRTPNPALKNGQYWV (modifications not checked) [CSPG4 (chondroitin sulfae proteoglycan 4, melanoma-associated)], in [3], the Classification stood at 3 A450 class.
As for QISPGGLEPPSEKHFRETEV (modifications not checked) [TAX], the fold stronger binding than CD95 in test [4] is greater than 3000 fold. Further, the Kd in test [5] is 5 nM and 6 nM; in test [6], 200 nM and 130 nM. Besides, the maximum OD (450 nm) in test [5] was 3.3 OD and 2.1 OD; in [6], 1.6 OD and 3.4 OD. Further, in test [7], the Classification was 1 A450 class.
The molecule KTMPAAMYRLLTAQEQPVYI (modifications not checked) [MINT-1] displayed a dissociation constant (Kd) in test [8] of 1000 nM.
Consider VPGALDYAAFSSALYGESDL (modifications not checked) [a-actinin 2], for which the Classification in test [9] was 4 A450 class. The dissociation constant (Kd) in test [10] and in test [11] was 2000 nM throughout.
Regarding ILNSIQVMRAQMNQIQSVEV (modifications not checked) [ephrin B2], the Kd in test [12] came out at 5000 nM; in test [13], 4000 nM. Further, the Classification in test [14], in test [15] and in test [16] was 1 A450 class in each case.
On to VGTLLLERVIFPSVKIATLV (modifications not checked) [AdenoE4 typ9], for which the Kd in [17] was 100 nM; in test [18], 20 nM; in test [19] it was 30 nM; in test [20], 200 nM; in test [21] it was 100 nM.
